# T1: myostatin (UniProt O14793)
# T1 sequence (looked up): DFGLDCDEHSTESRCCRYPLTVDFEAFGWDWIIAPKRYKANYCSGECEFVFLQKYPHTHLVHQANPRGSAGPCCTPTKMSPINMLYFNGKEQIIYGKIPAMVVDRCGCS
# B1: STM 434 (svActRIIB-Fc (E28W, S44T) polypeptide without signal sequence) (Fc fusion)
# chain: ETRWCIYYNANWELERTNQTGLERCEGEQDKRLHCYASWRNSSGTIELVKKGCWLDDFNCYDRQECVATEENPQVYFCCCEGNFCNERFTHLPEAGGPEVTYEPPPTAPTGGGGSVECPPCPAPPVAGPSVFLFPPKPKDTLMISRTPEVTCVVVDVSHEDPEVQFNWYVDGVEVHNAKTKPREEQFNSTFRVVSVLTVVHQDWLNGKEYKCKVSNKGLPAPIEKTISKTKGQPREPQVYTLPPSREEMTKNQVSLTCLVKGFYPSDIAVEWESNGQPENNYKTTPPMLDSDGSFFLYSKLTVDKSRWQQGNVFSCSVMHEALHNHYTQKSLSLSPGK
# Target: T1, myostatin
# Experiment: cell-based or functional assay
binder,measurement,value
B1,"Bioassay % relative potency; lot 0010036965, 5° C. upright, 0 months (% relative potency)",100
same,"Bioassay % relative potency; lot 0010036965, 5° C. upright, 0.5 months (% relative potency)",99
same,"Bioassay % relative potency; lot 0010036965, 5° C. upright, 1 month (% relative potency)",100
same,"Bioassay % relative potency; lot 0010036965, 5° C. upright, 3 months (% relative potency)",104
same,"Bioassay % relative potency; lot 0010036965, 5° C. upright, 6 months (% relative potency)",94
same,"Bioassay % relative potency; lot 0010036965, 25° C. upright, 0 months (% relative potency)",100
same,"Bioassay % relative potency; lot 0010036965, 25° C. upright, 0.25 months (% relative potency)",97
same,"Bioassay % relative potency; lot 0010036965, -20° C. upright, 0 months (% relative potency)",100
same,"Bioassay % relative potency; lot 0010036965, -20° C. upright, 1 month (% relative potency)",100
same,"Bioassay % relative potency; lot 0010036965, -20° C. upright, 3 months (% relative potency)",102
same,"Bioassay % relative potency; lot 0010036965, -20° C. upright, 6 months (% relative potency)",95
same,"Bioassay % relative potency; lot 0010036965, -20° C. upright, 9 months (% relative potency)",103
same,"Bioassay % relative potency; lot 0010036965, -20° C. upright, 12 months (% relative potency)",102
same,"Bioassay % relative potency; lot 0010036965, -20° C. upright, 18 months (% relative potency)",102
same,"Bioassay % relative potency; lot 0010036965, -20° C. upright, 24 months (% relative potency)",99
same,"Bioassay % relative potency; lot 0010036965, -20° C. upright, 30 months (% relative potency)",102
same,"Bioassay % relative potency; lot 0010036965, -70° C. upright, 0 months (% relative potency)",100
same,"Bioassay % relative potency; lot 0010036965, -70° C. upright, 12 months (% relative potency)",100
same,"Bioassay % relative potency; lot 0010036965, -70° C. upright, 24 months (% relative potency)",100
same,"Bioassay % relative potency; lot 0010036965, T = 0 of the 5 × freeze/thaw study (% relative potency)",100
same,"Bioassay % relative potency; lot 0010036965, after 5 × F/T (% relative potency)",100
same,"Bioassay % relative potency; lot EG-13-0150, 2-8° C. upright, 0 months (% relative potency)",99
same,"Bioassay % relative potency; lot EG-13-0150, 2-8° C. upright, 1 month (% relative potency)",93.2
same,"Bioassay % relative potency; lot EG-13-0150, 2-8° C. upright, 3 months (% relative potency)",99.7
same,"Bioassay % relative potency; lot EG-13-0150, 2-8° C. upright, 6 months (% relative potency)",114
same,"Bioassay % relative potency; lot EG-13-0150, 2-8° C. upright, 9 months (% relative potency)",103
same,"Bioassay % relative potency; lot EG-13-0150, 2-8° C. upright, 12 months (% relative potency)",106
same,"Bioassay % relative potency; lot EG-13-0150, 25° C. upright, 0 months (% relative potency)",99
same,"Bioassay % relative potency; lot EG-13-0150, 25° C. upright, 1 month (% relative potency)",86.9
same,"Bioassay % relative potency; lot EG-13-0150, -20° C. upright, 0 months (% relative potency)",99
same,"Bioassay % relative potency; lot EG-13-0150, -20° C. upright, 1 month (% relative potency)",93.2
same,"Bioassay % relative potency; lot EG-13-0150, -20° C. upright, 3 months (% relative potency)",94.4
same,"Bioassay % relative potency; lot EG-13-0150, -20° C. upright, 6 months (% relative potency)",110
same,"Bioassay % relative potency; lot EG-13-0150, -20° C. upright, 9 months (% relative potency)",99.3
same,"Bioassay % relative potency; lot EG-13-0150, -20° C. upright, 12 months (% relative potency)",105
same,"Bioassay % relative potency; lot EG-13-0150, T = 0 of the 5 × freeze/thaw study (% relative potency)",99
same,"Bioassay % relative potency; lot EG-13-0150, after 5 × F/T (% relative potency)",96
same,"Bioassay % relative potency; lot FG-13-0230, 2-8° C. upright, 0 months (% relative potency)",99
same,"Bioassay % relative potency; lot FG-13-0230, 2-8° C. upright, 1 month (% relative potency)",116
same,"Bioassay % relative potency; lot FG-13-0230, 2-8° C. upright, 3 months (% relative potency)",108
same,"Bioassay % relative potency; lot FG-13-0230, 2-8° C. upright, 6 months (% relative potency)",93
same,"Bioassay % relative potency; lot FG-13-0230, 2-8° C. upright, 9 months (% relative potency)",116
same,"Bioassay % relative potency; lot FG-13-0230, 2-8° C. upright, 12 months (% relative potency)",121
same,"Bioassay % relative potency; lot FG-13-0230, 25° C. upright, 0 months (% relative potency)",99
same,"Bioassay % relative potency; lot FG-13-0230, 25° C. upright, 1 month (% relative potency)",116
same,"Bioassay % relative potency; lot FG-13-0230, -20° C. upright, 0 months (% relative potency)",99
same,"Bioassay % relative potency; lot FG-13-0230, -20° C. upright, 1 month (% relative potency)",100
same,"Bioassay % relative potency; lot FG-13-0230, -20° C. upright, 3 months (% relative potency)",115
same,"Bioassay % relative potency; lot FG-13-0230, -20° C. upright, 6 months (% relative potency)",96
same,"Bioassay % relative potency; lot FG-13-0230, -20° C. upright, 9 months (% relative potency)",94
same,"Bioassay % relative potency; lot FG-13-0230, -20° C. upright, 12 months (% relative potency)",106
same,"Bioassay % relative potency; lot FG-13-0230, -70° C. upright, 0 months (% relative potency)",99
same,"Bioassay % relative potency; lot FG-13-0230, -70° C. upright, 1 month (% relative potency)",115
same,"Bioassay % relative potency; lot FG-13-0230, -70° C. upright, 3 months (% relative potency)",107
same,"Bioassay % relative potency; lot FG-14-0056, 2-8° C. upright, 0 months (% relative potency)",99
same,"Bioassay % relative potency; lot FG-14-0056, 2-8° C. upright, 1 month (% relative potency)",102
same,"Bioassay % relative potency; lot FG-14-0056, 25° C. upright, 0 months (% relative potency)",99
same,"Bioassay % relative potency; lot FG-14-0056, 25° C. upright, 1 month (% relative potency)",122
same,"Bioassay % relative potency; lot FG-14-0056, -20° C. by the title (condition line prints 2-8° C.), 0 months (% relative potency)",99
same,"Bioassay % relative potency; lot FG-14-0056, -20° C. by the title (condition line prints 2-8° C.), 1 month (% relative potency)",117
same,"Bioassay % relative potency; lot FG-14-0109, 2-8° C. inverted, 0 months (% relative potency)",98
same,"Bioassay % relative potency; lot FG-14-0109, 2-8° C. inverted, 3 months (% relative potency)",96
same,"Bioassay % relative potency; lot FG-14-0109, 2-8° C. inverted, 6 months (% relative potency)",112
same,"Bioassay % relative potency; lot FG-14-0109, 2-8° C. upright, 0 months (% relative potency)",98
same,"Bioassay % relative potency; lot FG-14-0109, 2-8° C. upright, 3 months (% relative potency)",92
same,"Bioassay % relative potency; lot FG-14-0109, 2-8° C. upright, 6 months (% relative potency)",107
same,"Bioassay % relative potency; lot FG-14-0109, 25° C. inverted, 0 months (% relative potency)",98
same,"Bioassay % relative potency; lot FG-14-0109, 25° C. inverted, 3 months (% relative potency)",94
same,"Bioassay % relative potency; lot FG-14-0109, 25° C. inverted, 6 months (% relative potency)",98
same,"Bioassay % relative potency; lot FG-14-0109, 25° C. upright, 0 months (% relative potency)",98
same,"Bioassay % relative potency; lot FG-14-0109, 25° C. upright, 3 months (% relative potency)",91
same,"Bioassay % relative potency; lot FG-14-0109, 25° C. upright, 6 months (% relative potency)",105
same,"Bioassay % relative potency; lot FG-14-0109, -20° C. upright, 0 months (% relative potency)",98
same,"Bioassay % relative potency; lot FG-14-0109, -20° C. upright, 3 months (% relative potency)",96
same,"Bioassay % relative potency; lot FG-14-0109, -20° C. upright, 6 months (% relative potency)",101
same,"Cell Based Bioassay, Relative Potency; DP lot 0010036965, 5° C., 54 months (% relative potency)",87
same,"Cell Based Bioassay, Relative Potency; DP lot 0010036965, -20° C., 54 months (% relative potency)",99
same,"Cell Based Bioassay, Relative Potency; DP lot 0010036965, -70° C., 54 months (% relative potency)",111
same,"Cell Based Bioassay, Relative Potency; DS lot 0010035106, 5° C., 54 months (% relative potency)",101
same,"Cell Based Bioassay, Relative Potency; DS lot 0010035106, -70° C., 54 months (% relative potency)",99

# Reference: patent US20240277805A1
